Changes are numbered by the printed parent chain.
B1: WT 1-4 (antibody, mouse IgG2b, kappa, V domains shown)
VH: QVQLQQPGAELVRPGASVKLSCKASGYSFTNYFMNWVKQRPGQGLEWIGMINPSDSETRVNQKFKDKATLTVDKSSSTAYMQLSSLTAEDSAVYYCAKSGDFYTTYWDYWGQGTTLTVSS
VL: DIQLTQSPASLSASVGETVTITCRGSGNVHNYIAWYQQKQGKSPQLLVYNAKTVADGVPSRFSGSGSGTQYSLKINSLQPEDFGSYYCQYFWSSYTFGGGTKLEIKR
B2: Mutation 1 (antibody, mouse IgG2b, kappa, V domains shown)
VH: B1 VH with Y27S, F33W, N52H, D55E, V60I, T105S, W107F
VL: B1 VL with V29L, I33L, K52R, V54I, Y90S, S94T
B3: WT 1-2 (antibody, mouse IgG2b, kappa, V domains shown)
VH: B1 VH with K98R
VL: B1 VL with S26T, V54I
B4: anti-Pan-PLDH 9G7 monoclonal antibody (antibody, mouse IgG2b, kappa, V domains shown)
VH: B1 VH with Y27S, D55E, V60I, T105S
VL: B1 VL with V29L, K52R, V54I, Y90S
B5: WT 1-5 (antibody, mouse IgG2b, kappa, V domains shown)
VH: B1 VH with D55E, D101E
VL: B1 VL with S26T, V29I, K52R, V54L, Y90S
B6: WT 1-3 (antibody, mouse IgG2b, kappa, V domains shown)
VH: B1 VH with Y27S, D55E, V60I, K98R, D101E, T105Y
VL: B1 VL with S26T, V29L, K52R, V54L, Y90T
B7: Mutation 3 (antibody, mouse IgG2b, kappa, V domains shown)
VH: B1 VH with Y27S, F33W, D55E, V60I, T105S, W107F
VL: B1 VL with V29L, K52R, V54I, Y90S, S94T
B8: Mutation 2 (antibody, mouse IgG2b, kappa, V domains shown)
VH: B1 VH with Y27S, N52H, D55E, V60I, T105S, W107F
VL: B1 VL with V29L, I33L, K52R, V54I, Y90S
B9: Mutation 4 (antibody, mouse IgG2b, kappa, V domains shown)
VH: B1 VH with Y27S, N52H, D55E, V60I, T105S
VL: B1 VL with V29L, K52R, V54I, Y90S, S94T

Biological target: Pan-species-specific antigen Plasmodium Lactate DeHydrogenase (Pan-PLDH) protein
Assay: indirect ELISA at four coating concentrations, KD calculated from half-maximal OD

Row | Binder | Kd [nM]
1 | B1 | 0.85
2 | B2 | 0.412
3 | B3 | 0.639
4 | B4 | 0.887
5 | B5 | 0.516
6 | B6 | 0.485

Biological target: Pan-species-specific antigen Plasmodium Lactate DeHydrogenase (Pan-PLDH) protein
Assay: indirect ELISA, recombinant MA protein coated 1 ug/ml, antibody 1.6 ng/ml

Row | Binder | OD value at 450 nm (refer to 630 nm) [OD]
7 | B7 | 0.274
8 | B8 | 0.297
9 | B2 | 0.339
10 | B4 | 0.205
11 | B9 | 0.251

Biological target: Pan-species-specific antigen Plasmodium Lactate DeHydrogenase (Pan-PLDH) protein
Assay: indirect ELISA, recombinant MA protein coated 1 ug/ml, antibody 0 ng/ml (blank)

Row | Binder | OD value at 450 nm (refer to 630 nm) [OD]
12 | B7 | 0.053
13 | B8 | 0.072
14 | B2 | 0.06
15 | B4 | 0.072
16 | B9 | 0.066

Biological target: Pan-species-specific antigen Plasmodium Lactate DeHydrogenase (Pan-PLDH) protein
Assay: indirect ELISA, recombinant MA protein coated 1 ug/ml, antibody 0.32 ng/ml

Row | Binder | OD value at 450 nm (refer to 630 nm) [OD]
17 | B7 | 0.255
18 | B8 | 0.231
19 | B2 | 0.27
20 | B4 | 0.173
21 | B9 | 0.211

Biological target: Pan-species-specific antigen Plasmodium Lactate DeHydrogenase (Pan-PLDH) protein
Assay: indirect ELISA, recombinant MA protein coated 1 ug/ml, antibody 1000 ng/ml

Row | Binder | OD value at 450 nm (refer to 630 nm) [OD]
22 | B7 | 2.23
23 | B8 | 2.21
24 | B2 | 2.26
25 | B4 | 1.94
26 | B9 | 2.15

Biological target: Pan-species-specific antigen Plasmodium Lactate DeHydrogenase (Pan-PLDH) protein
Assay: indirect ELISA, recombinant MA protein coated 1 ug/ml, antibody 40 ng/ml

Row | Binder | OD value at 450 nm (refer to 630 nm) [OD]
27 | B7 | 2.01
28 | B8 | 1.98
29 | B2 | 2.02
30 | B4 | 1.43
31 | B9 | 1.92

Biological target: Pan-species-specific antigen Plasmodium Lactate DeHydrogenase (Pan-PLDH) protein
Assay: indirect ELISA, recombinant MA protein coated 1 ug/ml, antibody 200 ng/ml

Row | Binder | OD value at 450 nm (refer to 630 nm) [OD]
32 | B7 | 2.14
33 | B8 | 2.14
34 | B2 | 2.19
35 | B4 | 1.82
36 | B9 | 2.03

Biological target: Pan-species-specific antigen Plasmodium Lactate DeHydrogenase (Pan-PLDH) protein
Assay: indirect ELISA, recombinant MA protein coated 1 ug/ml, antibody 8 ng/ml

Row | Binder | OD value at 450 nm (refer to 630 nm) [OD]
37 | B7 | 1.01
38 | B8 | 1
39 | B2 | 1.1
40 | B4 | 0.635
41 | B9 | 0.939
